Data on 34 sequences can be found in the NTF2 design screens of Basanta et al. (2020).

The data set in a line: protease stability score; higher = more stable; yeast display proteolysis, trypsin and chymotrypsin.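 Also: relative to predicted unfolded state with 0 unfolded-like and 1 meaning tenfold more protease.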
Regarding “DEDKKFIDEYLKLLEDSIETGDWRNHNELLDPNALVLVNGVELHGRELAVTHTEKFLKHMGVKHYRLHEVDIQGEKVHIHSKAHVDGRTFDLEFISHKIDGRWLMSEVRIREN”, the protease stability score amounted to 1.24. Take “SEQEKELQDALEILMHRWLTGDEDFLYEMMDPNVRFTINGQDFHGRDFFRQKWKELGLTRVEIDLKFVRLQGDKATVHGHINFNGRTTDVIMYIDKVNGVWITKTIEFR”: the protease stability score came to 2.17.

Take “TEHDQVLLQLSQELFHSVLTGDFDLWTKLMDPNVRVHIISEDEELHRVGWETMIRWLRRFLEELRIHSMRIRRVHHVDGVAHEDGELDGIVDGQRVITRVTLHVITINGRWHSVHLERL”: the protease stability score came out at 0.801. To “DDDKKRAEELLRLWHEFFETGDEHDMNRNLDPHAKVDVNGKEIHGREFVSEWLVRKVKFFKGIKLEHKRSHFVNGRAHLHTEINFDGVEFEVIIHSDKINGRWLVHEIIIK” belongs 1.17; to “DEIEKESERVMEKYFEDFITGDWETMWRQVDPHVKFRIGDKHFHGREQATRVYKEFLDELGVKVRRIHDFEFTLFDGRAYVHLDSTLRVNGRDHRLHITIIVEKINGRWRLHEFELRLH”, 0.367. For “DEREEWVERIERRLKEAIRTGDEHTLSKNMDPDAKLDINGVDLIGWERVIDFLRELRKELGVDKIHFRVESRRIIGDKAELDTRLHVNGKHHDTHVIIEKFNGVWSIHSLHVR” the value was 1.15; for “DEDTRDTEIAFELLLRHMYTGDWHLVERMLDPNVRVHQGDFHTVGWEDFVRISLEARLHDMRIHQVRSQGDFVEIDGHVDFEINGKRIRVRTILIVLKVNGRWFLKSIEIR”, 1.23. In turn, “DEEQHRMEEELRKMFEHLFTGDFKWLHKNVDPNARLDIGDKHVHGREAMVELIIRHVESLGVDHVKIRHVEVQGEKIEIRGESKVGDWKFSHHINVIVVDGVHKHFRIENR” displayed a protease stability score of 0.684.

“REEEQHAERFTKLFIEAFETGDWKELSRLLDPHARMEWNGRVHHGMEQIVEVLLKQFHDLGFRIEHVRIHDIRVQGEKIKVDVDIDGIVDGRREHWKVTLIILKVNGRWLTKEIEYR” returned a protease stability score of 1.31.

“SEDEEWSRLIVEEFIKVLDTGDERLTSEMLDPNARIVIGDKHIHGRESLVELIHRIKNIKFDFKHVNTQGDKVEVDGTIVFNGRTTTVLIRMKKVNGRWFVTEIHIE” came in with a protease stability score of 1.9. For “DEDERAIHVMLKLVKKAMDTGNEHMETELLDPNVRLDVNGRDVHGREEMRKFLNHHWKEWGVDRIIFLFESIHFQGDKVHIRGYVHINGKDFDVEFIASKVNGRWLVESRHLR” the value was 1.03; for “SDLDHRLRKLAEDLSRILETGNWRLMHKLADPNVKEDINGVEFHGRELLVKWLEDLLKELRVHFRVDHYDIQGNFLRVEITNNVFINGVQKVRDERLEVNMFDGKEKENRVRVE”, 0.717. To “DEDEEKLKEFRDVLLHAISTGDEETIKTLVDPHVRIEIDGKERHGRDKVTKLFRDLGVDHVRLTEVSIIGDKLHLDLRLRYGDKERTMIWIISKINGRWLIHTVETH” belongs 1.15; to “SDAERHSQEVLRLWIKAAKTGDEDKFRNYIDPHVRVEINGKEIHGRDILLEEMRRRDVIRHVRVTDSRHYDGVVIMDVEVDGHVNGRDVETQTTSFIIKIDGKWVWQSFVQI”, 0.98. To “DDSEEDALRILELLSDSMETGNWRLVSELLDPHVRLEVGDKTWVGMEEMKRLANQIRIHVHRVKFHHIDNFNGRVRVDGHIHGEIIVGDKIYRFRTRIEIDAVKINGQWVIEEMRIG” belongs 1.61; to “DDIDHFLLEIVLRFIEDNLTGNEDNLRKMADPDTRIFIHIGEKEFRIHGREAWTEWILTIVDHMRMRLNIRRLEWQGDKARITQEQDIHVGNKTHTTEVELHIVIIDGKMHTVHVELR”, 1.36; to “SEDHEALHKFLKELIESSRTGDWEDVTRLADPHTRQDFNGKILHGREELKETLKELGINHMEVILNRIDVQGDKAHVDGHLVIYYNGKEITREREIRMVKIDGVWLMHEVRIK”, 1.15. In the case of “SEEERLIIEVMKDFEHSHRTGDWRRILKNLDPNTRHEFNGVEFHGMEEVVRFWIELKDEIRIHHIEIESINHVGDKAHMNVRRDTEVNGKREDVRVQVDLRVINGRIKSVIIRIE”, the protease stability score worked out at 0.844.

In turn, “DEEEERMDRAYDHWRENILTGDWKRLRELADPHAKMDINGVDIHGMETFNKILSEELKEIRLKDVHIDDKHVVDGQLHVHGKRETLFNGKNTWIKTHIHLVIIDGRFHSYTVHIE” showed a protease stability score of 0.281. On to “DEDEKLKQEWMELFLESLRTGDWRILRKLIDPNVRLEVGDKQVIGREKVLEILKKILDEIRNQDVKLHDYTEINGRIYLDVELDLQQGDKRITLKIHTVLEKYDGRWIIRTFRIE”, for which the protease stability score was determined as 1.23. Take “TEDHRDIYRIVKLLIEFFKTGDFDSLRHLADPNTRLDIGDKHRHGMDLILKEYMDEMHELGVKHFDIKIHDVEIQGDKAQWDLRLHIKVGDKIIELRVILHAVKVNGKWILHKIEFI”: the protease stability score was 1.38. For “SEDEHLAERMVHLWNKILLTGNEEIMEKLFDPNTRVIVGDKEYVGREVFLHLVKEIRKRADHIEIRIQHLEVQGDKVHLHGILIFRQGDKSDEQRVHLHSEKVNGRWFLREFRFE” the value was 2.3; for “SKEEEDARFMMHLWEHVLRTGDEDVLHKLADPDVKIIIGDKEHVGREELIDIFRERLKEWRIHDFHIRRVHVINGKVHVDGETDGTINGRRIIFRIEIHLVIVDGRIKEVEEDME”, 1.87; for “DEEEEHFRRLLERFLHFWRTGDEDDYHKLADPHARSEVIIGDFRIESHGRHALEIWLRYMGIDHIHLEDSDSQGNKVHVHMHVKVGDKEHHVIIILIVIDGRVHQLTISVRRT”, 1.13.

“DDLEKVSHWFNRMWTEILKTGDEKLLKDLLDPHTKLIFENRHEHGREHMISFFKKLLDEMRVHDVKIRDIEVQGDKVISDTSLDLEINGRSFEVETRLLAVKVNGRWYVHEIELR” returned a protease stability score of 2.36.

As to “DEKEEEMEIASELALHVWETGDPDEFLKLADPHVKIDFDGVDIHGMDKEHERWKRVKNLTMHIKRFSYQGDKVHLDVILIVNGRTETIHIIASKVNGRWLIKRVIINRR”, the protease stability score worked out at 1.37. “SEWDELLRHILEVMINSVLTGDEHRQLWMADPHAKVHFENHEVHGRDHWSHLVREHINEIRMRIHLHDEKTVGNFAVSDVRYREEVNGVELSTEIELILIVVDGRLKQIEFRYH”: the protease stability score was -0.029. The sequence “DDHEEEVLRLLHTVLRIMWTGDEDELHRLADPNMKMWINGRKFHGRETAIETLKRMVNEIRIHEIHVKDFDVIGEYAHVDTRVRGTINGKETILNERIIVLVIDGRIKSIRIDLK” gave a protease stability score of 2.13. As for “SEDEKNVDEFMERMTRLTETGDEDNLRHLMDPNVYLHQGDKVHHGREDVVKAIREIIDNLGVTQVKAEVHSFEVIGDKMDLRGTLEFNGVRWRRHIDIHKVDGRWHLQFVHIE”, the protease stability score was determined as 0.251.

“DEDDENIEKVLRTLFKLIHTGDWRTWLRFFDPHVKLEIGDKRLHGREVAEEFIRHRIEHLGVDRVEVRLHSFDKQGNKLHSDMRLYVGDKEFNVEMHMEKVNGKWIVRVFSID”: the protease stability score was 1.38. In the case of “DEEEEELKQHLHEILHSIMTGDWRSLRHLIDPNVRLDIGDKTYHGREDFLTWVKHLIDKIPNVKFEIKHIRIVGEKVIMNIVVKINGVEHTRHLIADKIDGKWFISSTEVH”, the protease stability score stood at 1.76. To “SEDMERAESFHREWLEFSRTGDEDTLRSLLDPNARLRYGDKEYHGMDSLSRVDRELRVHDSRVHDLRIIDGRVHMDVDLDGTYNGKRVLLHTHFVVEKIDGRWILRSVHIH” belongs 0.643.

For the sequence “HEKKEAYDYMVEILWKAMHTGDEKTLKHLFDPHTKVTQGDFEIHGMEQFSEHLKHARYRRVRVKFEDSHTQGEKVRMHTRLEFEGEIDGKRDTLEFETHQIVTKIDGRWVFESLEIE”, the protease stability score came out at 0.7.

“DDEHHDAVRVIEEFVTSVLTGNWEILKELLDPNVKFEIDGREIWGREFVNREIEEIRIRSRMEVRSVRFQGEKMEVDTEYNVDLNIGDKRFHYRRSTRVILEKYDGRWRIQSFHFE” came in with a protease stability score of 0.284.
